Data on nine molecules can be found in patent US7067646 (Dana-Farber, dated 2006).

Assay [1] has as its target T1, MTAF600 (microtubule associated factor 600) (human, UniProt Q5T4S7 1-5183).
T1 construct: Native endogenous protein of HeLa nuclear extracts (5183 residues); also called MT-associated factor (MTAF) 600; 600 kDa subunit
The assay is described as follows: co-immunoprecipitation from HeLa extract, immunoblot.

The target in assay [2] is T1, MTAF600 (microtubule associated factor …). The assay is described as follows: immunoprecipitation with RB antibody from HeLa extract, anti-MTAF600 immunoblot.
The target of assay [3] is endogenous RB family proteins. The assay is described as follows: cell-based or functional assay.
The target of assay [4] is T1, MTAF600 (microtubule associated factor …). The assay is described as follows: MTAF600 immobilised on matrix incubated with GST-RB, immunoblot. Background: A western blot detects proteins with antibodies after separation by electrophoresis.
Assay [5] has the same target. The assay is described as follows: GST pull-down from HeLa nuclear extract, immunoblot.
The target is the same in assay [6]. Briefly: anti-FLAG immunoprecipitation of f:RB from HeLa nuclear extract, SDS-PAGE.

T1 sequence (Q5T4S7 other isoform, or with tags, fused parts or gaps limits assumed): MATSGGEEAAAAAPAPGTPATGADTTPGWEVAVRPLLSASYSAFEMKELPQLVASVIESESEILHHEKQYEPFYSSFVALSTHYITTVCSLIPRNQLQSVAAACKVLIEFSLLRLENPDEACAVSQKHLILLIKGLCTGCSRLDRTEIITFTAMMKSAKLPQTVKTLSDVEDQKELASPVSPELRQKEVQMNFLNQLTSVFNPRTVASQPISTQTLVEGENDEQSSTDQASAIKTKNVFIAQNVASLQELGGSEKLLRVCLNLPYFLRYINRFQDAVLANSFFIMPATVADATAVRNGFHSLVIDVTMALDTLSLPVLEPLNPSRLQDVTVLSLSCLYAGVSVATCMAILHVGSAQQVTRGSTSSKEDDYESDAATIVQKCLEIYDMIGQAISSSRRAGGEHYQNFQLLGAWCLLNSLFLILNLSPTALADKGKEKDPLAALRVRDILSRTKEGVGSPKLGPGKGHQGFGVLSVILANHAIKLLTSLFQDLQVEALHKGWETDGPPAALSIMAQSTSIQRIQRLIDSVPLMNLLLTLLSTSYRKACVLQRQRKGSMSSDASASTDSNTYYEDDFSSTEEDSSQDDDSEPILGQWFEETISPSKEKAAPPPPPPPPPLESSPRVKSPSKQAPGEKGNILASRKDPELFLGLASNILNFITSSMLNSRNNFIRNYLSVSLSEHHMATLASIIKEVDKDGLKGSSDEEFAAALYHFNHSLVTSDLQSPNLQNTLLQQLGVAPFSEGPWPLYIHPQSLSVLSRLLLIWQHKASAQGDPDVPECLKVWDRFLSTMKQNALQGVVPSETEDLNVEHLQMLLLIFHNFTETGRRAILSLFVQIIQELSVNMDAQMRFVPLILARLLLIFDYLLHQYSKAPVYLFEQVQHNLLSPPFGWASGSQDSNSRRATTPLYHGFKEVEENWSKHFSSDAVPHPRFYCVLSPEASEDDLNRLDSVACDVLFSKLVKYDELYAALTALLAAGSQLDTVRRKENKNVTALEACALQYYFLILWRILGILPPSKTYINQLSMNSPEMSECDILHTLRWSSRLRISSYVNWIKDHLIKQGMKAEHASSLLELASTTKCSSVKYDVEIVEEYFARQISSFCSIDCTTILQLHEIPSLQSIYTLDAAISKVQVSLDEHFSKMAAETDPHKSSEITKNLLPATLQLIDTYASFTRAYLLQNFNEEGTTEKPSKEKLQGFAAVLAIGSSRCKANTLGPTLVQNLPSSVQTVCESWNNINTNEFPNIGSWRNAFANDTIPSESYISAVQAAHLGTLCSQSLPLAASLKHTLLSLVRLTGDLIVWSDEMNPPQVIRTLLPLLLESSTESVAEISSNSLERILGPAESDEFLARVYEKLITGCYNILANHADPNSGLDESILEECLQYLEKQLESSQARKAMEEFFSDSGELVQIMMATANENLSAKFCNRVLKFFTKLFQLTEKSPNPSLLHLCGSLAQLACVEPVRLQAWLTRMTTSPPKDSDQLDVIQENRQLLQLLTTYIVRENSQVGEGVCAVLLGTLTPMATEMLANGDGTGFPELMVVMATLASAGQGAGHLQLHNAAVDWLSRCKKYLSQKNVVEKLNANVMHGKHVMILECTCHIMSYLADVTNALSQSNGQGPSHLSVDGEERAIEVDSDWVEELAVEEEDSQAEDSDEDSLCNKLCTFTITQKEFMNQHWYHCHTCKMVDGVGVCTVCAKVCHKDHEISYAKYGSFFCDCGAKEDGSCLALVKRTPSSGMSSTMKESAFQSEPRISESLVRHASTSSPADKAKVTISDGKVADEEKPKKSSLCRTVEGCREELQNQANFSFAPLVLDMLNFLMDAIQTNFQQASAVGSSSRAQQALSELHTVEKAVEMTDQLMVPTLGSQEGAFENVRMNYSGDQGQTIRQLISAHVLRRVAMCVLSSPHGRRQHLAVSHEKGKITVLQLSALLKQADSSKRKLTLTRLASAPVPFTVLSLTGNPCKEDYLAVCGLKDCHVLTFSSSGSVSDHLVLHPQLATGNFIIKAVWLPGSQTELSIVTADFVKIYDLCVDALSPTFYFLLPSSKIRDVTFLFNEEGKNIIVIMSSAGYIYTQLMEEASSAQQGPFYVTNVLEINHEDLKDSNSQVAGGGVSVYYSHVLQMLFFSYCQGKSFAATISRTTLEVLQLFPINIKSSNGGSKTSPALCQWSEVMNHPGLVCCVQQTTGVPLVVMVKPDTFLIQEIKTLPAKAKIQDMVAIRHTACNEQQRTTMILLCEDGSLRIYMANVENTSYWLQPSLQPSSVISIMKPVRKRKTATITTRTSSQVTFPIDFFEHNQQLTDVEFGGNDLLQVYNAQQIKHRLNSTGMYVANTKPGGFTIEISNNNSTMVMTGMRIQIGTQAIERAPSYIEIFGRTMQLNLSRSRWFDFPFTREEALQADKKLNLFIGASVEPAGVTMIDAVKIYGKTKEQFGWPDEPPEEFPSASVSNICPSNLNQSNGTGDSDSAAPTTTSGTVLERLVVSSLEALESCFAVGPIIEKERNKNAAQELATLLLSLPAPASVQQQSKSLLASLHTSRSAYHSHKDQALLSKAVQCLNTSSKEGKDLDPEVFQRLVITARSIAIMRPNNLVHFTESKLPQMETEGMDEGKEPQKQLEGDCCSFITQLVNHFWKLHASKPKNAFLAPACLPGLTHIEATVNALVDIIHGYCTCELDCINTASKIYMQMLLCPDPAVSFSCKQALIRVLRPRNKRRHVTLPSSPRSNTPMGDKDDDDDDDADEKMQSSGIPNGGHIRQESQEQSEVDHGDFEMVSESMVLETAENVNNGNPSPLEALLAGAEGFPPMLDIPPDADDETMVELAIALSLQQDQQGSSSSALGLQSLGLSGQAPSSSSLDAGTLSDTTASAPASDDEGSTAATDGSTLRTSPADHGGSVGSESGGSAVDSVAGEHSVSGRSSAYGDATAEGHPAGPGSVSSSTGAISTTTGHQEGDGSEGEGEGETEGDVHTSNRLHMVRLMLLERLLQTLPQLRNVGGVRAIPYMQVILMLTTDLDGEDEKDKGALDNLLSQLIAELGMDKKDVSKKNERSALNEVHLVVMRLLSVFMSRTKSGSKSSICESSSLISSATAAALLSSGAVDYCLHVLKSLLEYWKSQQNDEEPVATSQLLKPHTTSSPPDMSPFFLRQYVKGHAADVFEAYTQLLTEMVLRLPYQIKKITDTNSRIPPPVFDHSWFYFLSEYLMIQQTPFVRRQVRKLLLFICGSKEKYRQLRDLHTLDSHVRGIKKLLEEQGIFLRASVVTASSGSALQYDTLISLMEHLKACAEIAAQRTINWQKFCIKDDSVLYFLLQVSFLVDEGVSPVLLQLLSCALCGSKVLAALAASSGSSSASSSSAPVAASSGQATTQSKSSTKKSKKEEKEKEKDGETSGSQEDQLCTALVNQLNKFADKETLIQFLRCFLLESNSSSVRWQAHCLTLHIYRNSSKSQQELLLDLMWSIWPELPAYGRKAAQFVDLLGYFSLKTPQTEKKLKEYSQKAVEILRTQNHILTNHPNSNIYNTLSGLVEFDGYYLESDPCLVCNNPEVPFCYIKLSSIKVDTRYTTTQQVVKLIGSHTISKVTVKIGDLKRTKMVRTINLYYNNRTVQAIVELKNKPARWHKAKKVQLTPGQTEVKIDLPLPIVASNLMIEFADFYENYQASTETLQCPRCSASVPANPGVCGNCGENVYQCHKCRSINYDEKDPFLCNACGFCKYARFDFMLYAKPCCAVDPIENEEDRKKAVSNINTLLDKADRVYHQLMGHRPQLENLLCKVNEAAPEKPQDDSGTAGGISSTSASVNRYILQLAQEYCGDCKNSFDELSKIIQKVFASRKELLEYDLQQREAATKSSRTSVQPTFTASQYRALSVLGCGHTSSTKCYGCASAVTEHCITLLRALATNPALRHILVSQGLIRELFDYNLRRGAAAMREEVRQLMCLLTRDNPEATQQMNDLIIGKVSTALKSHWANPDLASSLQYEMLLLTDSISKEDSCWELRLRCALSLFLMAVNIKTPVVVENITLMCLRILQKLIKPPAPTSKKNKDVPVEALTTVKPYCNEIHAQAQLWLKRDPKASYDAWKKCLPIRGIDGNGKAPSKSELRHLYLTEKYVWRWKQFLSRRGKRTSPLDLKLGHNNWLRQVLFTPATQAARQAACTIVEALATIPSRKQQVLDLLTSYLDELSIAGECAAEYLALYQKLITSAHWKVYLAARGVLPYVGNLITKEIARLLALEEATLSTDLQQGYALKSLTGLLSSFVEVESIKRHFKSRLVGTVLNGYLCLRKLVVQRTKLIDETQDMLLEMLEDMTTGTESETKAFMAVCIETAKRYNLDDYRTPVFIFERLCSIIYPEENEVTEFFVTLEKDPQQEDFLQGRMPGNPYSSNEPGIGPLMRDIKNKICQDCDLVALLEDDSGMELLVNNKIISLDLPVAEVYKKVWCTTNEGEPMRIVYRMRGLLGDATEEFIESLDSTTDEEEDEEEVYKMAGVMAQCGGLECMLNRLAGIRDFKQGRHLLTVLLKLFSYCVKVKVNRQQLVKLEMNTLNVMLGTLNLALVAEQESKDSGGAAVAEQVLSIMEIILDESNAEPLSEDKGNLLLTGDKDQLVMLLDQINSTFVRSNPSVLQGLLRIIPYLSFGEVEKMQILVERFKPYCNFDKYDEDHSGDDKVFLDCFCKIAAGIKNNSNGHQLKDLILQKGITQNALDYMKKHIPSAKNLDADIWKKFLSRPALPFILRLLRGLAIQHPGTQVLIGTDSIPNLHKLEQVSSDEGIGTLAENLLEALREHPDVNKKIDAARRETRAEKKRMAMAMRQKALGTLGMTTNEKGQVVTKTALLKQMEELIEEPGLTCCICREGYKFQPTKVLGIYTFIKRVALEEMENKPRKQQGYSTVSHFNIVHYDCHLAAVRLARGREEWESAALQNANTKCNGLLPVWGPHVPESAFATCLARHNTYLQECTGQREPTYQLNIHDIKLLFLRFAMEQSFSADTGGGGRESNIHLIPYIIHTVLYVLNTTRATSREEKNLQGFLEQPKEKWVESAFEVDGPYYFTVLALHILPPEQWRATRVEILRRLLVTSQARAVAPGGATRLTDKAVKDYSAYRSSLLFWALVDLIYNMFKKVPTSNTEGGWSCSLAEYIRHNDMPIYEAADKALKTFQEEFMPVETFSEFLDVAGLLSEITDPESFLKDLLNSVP

B1: hypophosphorylated RB (other, human, UniProt P06400 2-928, looked up)
chain: PPKTPRKTAATAAAAAAEPPAPPPPPPPEEDPEQDSGPEDLPLVRLEFEETEEPDFTALCQKLKIPDHVRERAWLTWEKVSSVDGVLGGYIQKKKELWGICIFIAAVDLDEMSFTFTELQKNIEISVHKFFNLLKEIDTSTKVDNAMSRLLKKYDVLFALFSKLERTCELIYLTQPSSSISTEINSALVLKVSWITFLLAKGEVLQMEDDLVISFQLMLCVLDYFIKLSPPMLLKEPYKTAVIPINGSPRTPRRGQNRSARIAKQLENDTRIIEVLCKEHECNIDEVKNVYFKNFIPFMNSLGLVTSNGLPEVENLSKRYEEIYLKNKDLDARLFLDHDKTLQTDSIDSFETQRTPRKSNLDEEVNVIPPHTPVRTVMNTIQQLMMILNSASDQPSENLISYFNNCTVNPKESILKRVKDIGYIFKEKFAKAVGQGCVEIGSQRYKLGVRLYYRVMESMLKSEEERLSIQNFSKLLNDNIFHMSLLACALEVVMATYSRSTSQNLDSGTDLSFPWILNVLNLKAFDFYKVIESFIKAEGNLTREMIKHLERCEHRIMESLAWLSDSPLFDLIKQSKDREGPTDHLESACPLNLPLQNNHTAADMYLSPVRSPKKKGSTTRVNSTANAETQATSAFQTQKPLKSTSLSLFYKKVYRLAYLRLNTLCERLLSEHPELEHIIWTLFQHTLQNEYELMRDRHLDQIMMCSMYGICKVKNIDLKFKIIVTAYKDLPHAVQETFKRVLIKEEEYDSIIVFYNSVFMQRLKTNILQYASTRPPTLSPIPHIPRSPYKFPSSPLRIPGGNIYISPLKSPYKISEGLPTPTKMTPRSRILVSIGESFGTSEKFQKINQMVCNSDRVLKRSAEGSNPPKPLKKLRFDIEGSDEADGSKHLPGESKFQQKLAEMTSTRTRMQKQKMNDSMDTSNKEEK
modifications: hypophosphorylated (sites not given)
notes: also called RB (hypo-phosphorylated)
B1: the binding result in assay [1] is recorded as “binds”.

B2: hyperphosphorylated RB (other, human, UniProt P06400 2-928, looked up)
chain: B1 chain
modifications: hyperphosphorylated (sites not given)
notes: also called P-RB
As to B2, the binding result in assay [1] is “binds”.

B3: RB (retinoblastoma protein), endogenous, HeLa extract (other, human, UniProt P06400 2-928, looked up)
chain: B1 chain
notes: Endogenous RB, both phosphorylation forms together
With B3, the binding result in assay [2] was “binds”.

B4: FLAG-tagged MTAF600 (3910-4851), Q5T4S7 3910-4851 (protein)
chain: FDYNLRRGAAAMREEVRQLMCLLTRDNPEATQQMNDLIIGKVSTALKSHWANPDLASSLQYEMLLLTDSISKEDSCWELRLRCALSLFLMAVNIKTPVVVENITLMCLRILQKLIKPPAPTSKKNKDVPVEALTTVKPYCNEIHAQAQLWLKRDPKASYDAWKKCLPIRGIDGNGKAPSKSELRHLYLTEKYVWRWKQFLSRRGKRTSPLDLKLGHNNWLRQVLFTPATQAARQAACTIVEALATIPSRKQQVLDLLTSYLDELSIAGECAAEYLALYQKLITSAHWKVYLAARGVLPYVGNLITKEIARLLALEEATLSTDLQQGYALKSLTGLLSSFVEVESIKRHFKSRLVGTVLNGYLCLRKLVVQRTKLIDETQDMLLEMLEDMTTGTESETKAFMAVCIETAKRYNLDDYRTPVFIFERLCSIIYPEENEVTEFFVTLEKDPQQEDFLQGRMPGNPYSSNEPGIGPLMRDIKNKICQDCDLVALLEDDSGMELLVNNKIISLDLPVAEVYKKVWCTTNEGEPMRIVYRMRGLLGDATEEFIESLDSTTDEEEDEEEVYKMAGVMAQCGGLECMLNRLAGIRDFKQGRHLLTVLLKLFSYCVKVKVNRQQLVKLEMNTLNVMLGTLNLALVAEQESKDSGGAAVAEQVLSIMEIILDESNAEPLSEDKGNLLLTGDKDQLVMLLDQINSTFVRSNPSVLQGLLRIIPYLSFGEVEKMQILVERFKPYCNFDKYDEDHSGDDKVFLDCFCKIAAGIKNNSNGHQLKDLILQKGITQNALDYMKKHIPSAKNLDADIWKKFLSRPALPFILRLLRGLAIQHPGTQVLIGTDSIPNLHKLEQVSSDEGIGTLAENLLEALREHPDVNKKIDAARRETRAEKKRMAMAMRQKALGTLGMTTNEKGQVVTKTALLKQMEELIEEPGLTCCICREGYKFQPTK
B4: the cells in S-phase at 24 hr after replating (FACS, stably transfected U2OS cells; control cells 64%) in assay [3] was found to be 37%.

B5: GST-RB (379-928) (other, UniProt P06400 379-928, looked up)
chain: MNTIQQLMMILNSASDQPSENLISYFNNCTVNPKESILKRVKDIGYIFKEKFAKAVGQGCVEIGSQRYKLGVRLYYRVMESMLKSEEERLSIQNFSKLLNDNIFHMSLLACALEVVMATYSRSTSQNLDSGTDLSFPWILNVLNLKAFDFYKVIESFIKAEGNLTREMIKHLERCEHRIMESLAWLSDSPLFDLIKQSKDREGPTDHLESACPLNLPLQNNHTAADMYLSPVRSPKKKGSTTRVNSTANAETQATSAFQTQKPLKSTSLSLFYKKVYRLAYLRLNTLCERLLSEHPELEHIIWTLFQHTLQNEYELMRDRHLDQIMMCSMYGICKVKNIDLKFKIIVTAYKDLPHAVQETFKRVLIKEEEYDSIIVFYNSVFMQRLKTNILQYASTRPPTLSPIPHIPRSPYKFPSSPLRIPGGNIYISPLKSPYKISEGLPTPTKMTPRSRILVSIGESFGTSEKFQKINQMVCNSDRVLKRSAEGSNPPKPLKKLRFDIEGSDEADGSKHLPGESKFQQKLAEMTSTRTRMQKQKMNDSMDTSNKEEK
notes: Expressed in E. coli; also called large pocket domain of RB as GST fusion; not shown: glutathione S-transferase (GST) fusion partner of vector pGEX6P-1
On to B5, for which, in assay [4], the binding result is on record as “binds”.

B6: GST-RB (379-646) (other, UniProt P06400 379-646, looked up)
chain: MNTIQQLMMILNSASDQPSENLISYFNNCTVNPKESILKRVKDIGYIFKEKFAKAVGQGCVEIGSQRYKLGVRLYYRVMESMLKSEEERLSIQNFSKLLNDNIFHMSLLACALEVVMATYSRSTSQNLDSGTDLSFPWILNVLNLKAFDFYKVIESFIKAEGNLTREMIKHLERCEHRIMESLAWLSDSPLFDLIKQSKDREGPTDHLESACPLNLPLQNNHTAADMYLSPVRSPKKKGSTTRVNSTANAETQATSAFQTQKPLKSTS
notes: Expressed in E. coli; not shown: glutathione S-transferase (GST) fusion partner of vector pGEX6P-1
Consider B6, for which the binding result in assay [5] is “no binding”.

B7: GST-RB (379-772) (other, UniProt P06400 379-772, looked up)
chain: MNTIQQLMMILNSASDQPSENLISYFNNCTVNPKESILKRVKDIGYIFKEKFAKAVGQGCVEIGSQRYKLGVRLYYRVMESMLKSEEERLSIQNFSKLLNDNIFHMSLLACALEVVMATYSRSTSQNLDSGTDLSFPWILNVLNLKAFDFYKVIESFIKAEGNLTREMIKHLERCEHRIMESLAWLSDSPLFDLIKQSKDREGPTDHLESACPLNLPLQNNHTAADMYLSPVRSPKKKGSTTRVNSTANAETQATSAFQTQKPLKSTSLSLFYKKVYRLAYLRLNTLCERLLSEHPELEHIIWTLFQHTLQNEYELMRDRHLDQIMMCSMYGICKVKNIDLKFKIIVTAYKDLPHAVQETFKRVLIKEEEYDSIIVFYNSVFMQRLKTNILQYA
notes: as for B6
On to B7, for which the binding result in assay [5] is “no binding”.

B8: GST-RB (646-928) (other, UniProt P06400 646-928, looked up)
chain: SLSLFYKKVYRLAYLRLNTLCERLLSEHPELEHIIWTLFQHTLQNEYELMRDRHLDQIMMCSMYGICKVKNIDLKFKIIVTAYKDLPHAVQETFKRVLIKEEEYDSIIVFYNSVFMQRLKTNILQYASTRPPTLSPIPHIPRSPYKFPSSPLRIPGGNIYISPLKSPYKISEGLPTPTKMTPRSRILVSIGESFGTSEKFQKINQMVCNSDRVLKRSAEGSNPPKPLKKLRFDIEGSDEADGSKHLPGESKFQQKLAEMTSTRTRMQKQKMNDSMDTSNKEEK
notes: as for B6
As for B8, in assay [5], the binding result is listed as “no binding”.

B9: FLAG-epitope-tagged RB (tag at the N-terminus) (other, UniProt P06400 1-928, looked up, not shown: small tags and cut ends)
chain: MPPKTPRKTAATAAAAAAEPPAPPPPPPPEEDPEQDSGPEDLPLVRLEFEETEEPDFTALCQKLKIPDHVRERAWLTWEKVSSVDGVLGGYIQKKKELWGICIFIAAVDLDEMSFTFTELQKNIEISVHKFFNLLKEIDTSTKVDNAMSRLLKKYDVLFALFSKLERTCELIYLTQPSSSISTEINSALVLKVSWITFLLAKGEVLQMEDDLVISFQLMLCVLDYFIKLSPPMLLKEPYKTAVIPINGSPRTPRRGQNRSARIAKQLENDTRIIEVLCKEHECNIDEVKNVYFKNFIPFMNSLGLVTSNGLPEVENLSKRYEEIYLKNKDLDARLFLDHDKTLQTDSIDSFETQRTPRKSNLDEEVNVIPPHTPVRTVMNTIQQLMMILNSASDQPSENLISYFNNCTVNPKESILKRVKDIGYIFKEKFAKAVGQGCVEIGSQRYKLGVRLYYRVMESMLKSEEERLSIQNFSKLLNDNIFHMSLLACALEVVMATYSRSTSQNLDSGTDLSFPWILNVLNLKAFDFYKVIESFIKAEGNLTREMIKHLERCEHRIMESLAWLSDSPLFDLIKQSKDREGPTDHLESACPLNLPLQNNHTAADMYLSPVRSPKKKGSTTRVNSTANAETQATSAFQTQKPLKSTSLSLFYKKVYRLAYLRLNTLCERLLSEHPELEHIIWTLFQHTLQNEYELMRDRHLDQIMMCSMYGICKVKNIDLKFKIIVTAYKDLPHAVQETFKRVLIKEEEYDSIIVFYNSVFMQRLKTNILQYASTRPPTLSPIPHIPRSPYKFPSSPLRIPGGNIYISPLKSPYKISEGLPTPTKMTPRSRILVSIGESFGTSEKFQKINQMVCNSDRVLKRSAEGSNPPKPLKKLRFDIEGSDEADGSKHLPGESKFQQKLAEMTSTRTRMQKQKMNDSMDTSNKEEK
notes: also called f:RB; f: RB
In the case of B9, in assay [6], the binding result is listed as “binds”.
